# In article PMC9813972:
# Target: AbTFM (A. baumannii tautomerase family member) (Acinetobacter baumannii)
# Assay: crystal structure; sitting-drop crystals at 296 K from 0.2 M ammonium nitrate, PEG 3350; protein in 20 mM HEPES-NaOH pH 6.8, 150 mM NaCl; space group H3, one subunit in the asymmetric unit, trimer by the crystallographic threefold axis
substance,measurement,value
AbTFM (A. baumannii tautomerase family member) (natural protein),stoichiometry N,3
